From paper PMC3941021 (Nature structural & molecular biology, 2013) come the findings set out here.

What all share (test): crystal structure
Assay [1] addresses lysine-methylated EphA4 ectodomain (EphA4_(ecto)), human (human, UniProt P54764 20-547, lysine-methylated).
Assay [2] concerns the target T1, EphA4 ectodomain (EphA4_(ecto)), human (human, UniProt P54764 20-547).
Assay [3] addresses T1, EphA4 ectodomain (EphA4_(ecto)), human. This is another data set of the same source.

Like-named read-outs stand apart in the source and are kept apart here.

T1 sequence (P54764 20-547): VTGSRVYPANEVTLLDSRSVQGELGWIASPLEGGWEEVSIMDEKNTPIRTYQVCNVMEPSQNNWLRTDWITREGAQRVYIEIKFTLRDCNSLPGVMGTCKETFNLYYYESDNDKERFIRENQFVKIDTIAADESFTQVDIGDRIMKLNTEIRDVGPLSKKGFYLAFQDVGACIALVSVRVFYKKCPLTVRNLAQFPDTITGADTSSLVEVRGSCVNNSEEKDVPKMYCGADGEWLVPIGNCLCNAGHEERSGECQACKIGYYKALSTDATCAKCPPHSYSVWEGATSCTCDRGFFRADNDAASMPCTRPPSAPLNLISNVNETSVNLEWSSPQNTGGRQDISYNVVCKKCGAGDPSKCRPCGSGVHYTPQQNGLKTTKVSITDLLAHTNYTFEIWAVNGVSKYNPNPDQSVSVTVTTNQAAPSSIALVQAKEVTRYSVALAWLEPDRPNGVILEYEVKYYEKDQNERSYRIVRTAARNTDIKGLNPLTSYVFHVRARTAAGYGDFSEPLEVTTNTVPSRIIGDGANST
Chain of lysine-methylated EphA4 ectodomain (EphA4_(ecto)), human (P54764 20-547): as above

B1: ephrinA5 receptor-binding domain (RBD), human, of the lysine-methylated complex sample (domain or fragment)
chain: AVADRYAVYWNSSNPRFQRGDYHIDVCINDYLDVFCPHYEDSVPEDKTERYVLYMVNFDGYSACDHTSKGFKRWECNRPHSPNGPLKFSEKFQLFTPFSLGFEFRPGREYFYISSAIPDNGRRSCLKLKVFVRPTNSCMK
modifications: lysine-methylated (the paper calls the EphA4_(ecto)-ephrinA5 RBD complex sample lysine-methylated)
In the case of B1, the binding result in assay [1] is listed as “binds”.

B2: ephrinA5 receptor-binding domain (RBD), human (domain or fragment)
chain: AVADRYAVYWNSSNPRFQRGDYHIDVCINDYLDVFCPHYEDSVPEDKTERYVLYMVNFDGYSACDHTSKGFKRWECNRPHSPNGPLKFSEKFQLFTPFSLGFEFRPGREYFYISSAIPDNGRRSCLKLKVFVRPTNSCMK
With B2, the binding result in assay [2] is “binds”.

B3: ephrinB3 receptor-binding domain (RBD), human (domain or fragment)
chain: GLSLEPVYWNSANKRFQAEGGYVLYPQIGDRLDLLCPRARPPGPHSSPNYEFYKLYLVGGAQGRRCEAPPAPNLLLTCDRPDLDLRFTIKFQEYSPNLWGHEFRSHHDYYIIATSDGTREGLESLQGGVCLTRGMKVLLRVGQ
Take B3: the binding result in assay [3] is on record as “binds”.
